Experimental data published in publication PMC3561989.

Legend:
hnRNP A1 (cited work) [1] = biological target: hnRNP A1 (cited work) (UniProt P09651); assay: fluorescence assay; details: cited from earlier work
hnRNP A1 (cited work) [2] = biological target: hnRNP A1 (cited work) (UniProt P09651); assay: filter binding; details: cited from earlier work
Lin28 ZnF = biological target: T1, Lin28 ZnF (UniProt Q9H9Z2 137-176); assay: plate binding, coated protein
T1 chain: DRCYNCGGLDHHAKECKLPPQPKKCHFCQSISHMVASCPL

Chain of hnRNP A1 (cited work) (P09651 whole entry): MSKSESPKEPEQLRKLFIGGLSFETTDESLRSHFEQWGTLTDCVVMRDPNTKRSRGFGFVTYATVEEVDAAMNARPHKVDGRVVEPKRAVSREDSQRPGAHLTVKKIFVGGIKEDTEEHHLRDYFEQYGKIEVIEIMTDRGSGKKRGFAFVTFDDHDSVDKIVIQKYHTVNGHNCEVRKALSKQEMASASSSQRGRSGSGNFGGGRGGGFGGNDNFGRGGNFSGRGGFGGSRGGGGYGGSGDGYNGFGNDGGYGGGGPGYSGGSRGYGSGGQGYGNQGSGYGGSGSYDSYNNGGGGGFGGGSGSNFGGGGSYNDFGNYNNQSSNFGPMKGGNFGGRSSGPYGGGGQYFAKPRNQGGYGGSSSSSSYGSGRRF

UAUGAUAGGGACUUAGGGUG [hnRNP A1 SELEX winner]
Kd (hnRNP A1 (cited work) [1]): 2.5 nM | Kd (hnRNP A1 (cited work) [2]): 1 nM

B1: pre-miR-9-1 (structured_RNA)
RNA: UCUUUGGUUAUCUAGCUGUAUGAGUGGUGUGGAGUCUUCAUAAAGCUAGAUAACCGAAAGU
binding result (Lin28 ZnF): binds
